Data published in the supplement of paper PMC9112550, “Optimization of the antimicrobial peptide Bac7 by deep mutational scanning” (BMC Biology, 2022).

tested on: Escherichia coli TOP10; experiment: shrunken log2 fold change of peptide-encoding DNA abundance (4.5 h post-induction vs induction); higher = less antimicrobial activity (less host growth inhibition); details: time post-induction: 4.5 h; library: site-saturation at positions 5, 18, 19, 20
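Further: peptides expressed intracellularly from a pBAD plasmid library in pooled LB shake-flask culture, induced with 0.3% L-arabinose, DNA abundance read by NGS, three biological replicates, DESeq2 with apeglm shrinkage.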

RRIRMRPPRLPRPRPRPQLTPRP and RRIRARPPRLPRPRPRPMLCPRP are within 0.2 log units of each other in “shrunken log2 fold change” value: 0.743 for the first, 0.637 for the second.

Going from RRIRTRPPRLPRPRPRPYNSPRP to RRIRSRPPRLPRPRPRPSKYPRP, the “shrunken log2 fold change” value falls from -0.00162 to -0.345.

Compared with RRIRVRPPRLPRPRPRPHTFPRP, RRIRHRPPRLPRPRPRPADFPRP is higher in “shrunken log2 fold change” value: -0.105 for the first, 0.116 for the second.

First: RRIRHRPPRLPRPRPRPSQRPRP
Second: RRIRERPPRLPRPRPRPNRNPRP
The “shrunken log2 fold change” value of the first is higher: -0.102 for the first, -1.09 for the second.

RRIRSRPPRLPRPRPRPNHCPRP and RRIRFRPPRLPRPRPRPSDYPRP are within 0.2 log units of each other in “shrunken log2 fold change” value: -0.415 for the first, -0.219 for the second.

RRIRPRPPRLPRPRPRPAGPPRP and RRIRTRPPRLPRPRPRPVSEPRP are within 0.2 log units of each other in “shrunken log2 fold change” value: 0.314 for the first, 0.135 for the second.

RRIRVRPPRLPRPRPRPVVSPRP and RRIRLRPPRLPRPRPRPSAKPRP are within 0.2 log units of each other in “shrunken log2 fold change” value: 0.0132 for the first, -0.0639 for the second.

RRIRRRPPRLPRPRPRPDTMPRP and RRIRMRPPRLPRPRPRPHIEPRP are within 0.2 log units of each other in “shrunken log2 fold change” value: 0.0801 for the first, -0.0375 for the second.

Compared with RRIRERPPRLPRPRPRPWAMPRP, RRIRIRPPRLPRPRPRPTHPPRP is higher in “shrunken log2 fold change” value: -0.129 for the first, 0.225 for the second.

RRIRYRPPRLPRPRPRPMSAPRP and RRIRSRPPRLPRPRPRPGWMPRP are within 0.2 log units of each other in “shrunken log2 fold change” value: -0.0208 for the first, -0.0141 for the second.

RRIRRRPPRLPRPRPRPWSIPRP and RRIRTRPPRLPRPRPRPLPQPRP are within 0.2 log units of each other in “shrunken log2 fold change” value: 0.0651 for the first, 0.165 for the second.

Going from RRIRCRPPRLPRPRPRPYVWPRP to RRIRMRPPRLPRPRPRPGFPPRP, the “shrunken log2 fold change” value rises from -0.369 to 0.446.

RRIRLRPPRLPRPRPRPYDPPRP and RRIRERPPRLPRPRPRPWQPPRP are within 0.2 log units of each other in “shrunken log2 fold change” value: -0.109 for the first, 0.0778 for the second.

First: RRIRMRPPRLPRPRPRPELSPRP
Second: RRIRARPPRLPRPRPRPEWDPRP
The “shrunken log2 fold change” value of the first is lower: 0.0644 for the first, 1.13 for the second.

First: RRIRNRPPRLPRPRPRPLGCPRP
Second: RRIRSRPPRLPRPRPRPNSGPRP
The “shrunken log2 fold change” value of the first is lower: -0.27 for the first, 0.0845 for the second.

Going from RRIRLRPPRLPRPRPRPMLLPRP to RRIRVRPPRLPRPRPRPSMFPRP, the “shrunken log2 fold change” value rises from -0.56 to -0.245.

RRIRQRPPRLPRPRPRPQSFPRP and RRIRLRPPRLPRPRPRPCIGPRP are within 0.2 log units of each other in “shrunken log2 fold change” value: -0.0179 for the first, -0.147 for the second.

First: RRIRCRPPRLPRPRPRPWLNPRP
Second: RRIRTRPPRLPRPRPRPMWQPRP
The “shrunken log2 fold change” value of the first is lower: -0.752 for the first, 0.0135 for the second.

Going from RRIRWRPPRLPRPRPRPQIIPRP to RRIRRRPPRLPRPRPRPYVDPRP, the “shrunken log2 fold change” value rises from -0.805 to -0.102.

RRIRPRPPRLPRPRPRPVSWPRP and RRIRARPPRLPRPRPRPVASPRP are within 0.2 log units of each other in “shrunken log2 fold change” value: 0.704 for the first, 0.595 for the second.

RRIRLRPPRLPRPRPRPWDVPRP and RRIRDRPPRLPRPRPRPMFVPRP are within 0.2 log units of each other in “shrunken log2 fold change” value: -0.0498 for the first, -0.0355 for the second.

RRIRWRPPRLPRPRPRPAKVPRP and RRIRSRPPRLPRPRPRPSWCPRP are within 0.2 log units of each other in “shrunken log2 fold change” value: -0.177 for the first, -0.132 for the second.

RRIRFRPPRLPRPRPRPMPGPRP and RRIRYRPPRLPRPRPRPMWVPRP are within 0.2 log units of each other in “shrunken log2 fold change” value: -0.0263 for the first, -0.0664 for the second.

First: RRIRYRPPRLPRPRPRPAGNPRP
Second: RRIRSRPPRLPRPRPRPYEKPRP
The “shrunken log2 fold change” value of the first is higher: -0.601 for the first, -1.08 for the second.

Going from RRIRHRPPRLPRPRPRPLDFPRP to RRIRFRPPRLPRPRPRPTCVPRP, the “shrunken log2 fold change” value rises from -0.342 to -0.0732.

Going from RRIRIRPPRLPRPRPRPCYRPRP to RRIRHRPPRLPRPRPRPAMNPRP, the “shrunken log2 fold change” value rises from -0.44 to -0.0974.

First: RRIRARPPRLPRPRPRPGGLPRP
Second: RRIRERPPRLPRPRPRPPWYPRP
The “shrunken log2 fold change” value of the first is higher: 0.936 for the first, -0.227 for the second.

RRIRVRPPRLPRPRPRPNVCPRP and RRIRNRPPRLPRPRPRPGCYPRP are within 0.2 log units of each other in “shrunken log2 fold change” value: -0.111 for the first, -0.24 for the second.

Going from RRIRKRPPRLPRPRPRPMQRPRP to RRIRKRPPRLPRPRPRPWTCPRP, the “shrunken log2 fold change” value falls from 0.744 to -0.0961.

RRIRWRPPRLPRPRPRPAHCPRP and RRIRCRPPRLPRPRPRPSSDPRP are within 0.2 log units of each other in “shrunken log2 fold change” value: -0.0174 for the first, -0.162 for the second.

RRIRSRPPRLPRPRPRPHKGPRP and RRIRTRPPRLPRPRPRPYFRPRP are within 0.2 log units of each other in “shrunken log2 fold change” value: -0.22 for the first, -0.138 for the second.

RRIRWRPPRLPRPRPRPCEFPRP and RRIRRRPPRLPRPRPRPWGSPRP are within 0.2 log units of each other in “shrunken log2 fold change” value: -0.0211 for the first, -0.186 for the second.

Going from RRIRLRPPRLPRPRPRPLHIPRP to RRIRERPPRLPRPRPRPFAWPRP, the “shrunken log2 fold change” value rises from -0.367 to 0.143.

RRIRPRPPRLPRPRPRPEKEPRP and RRIRLRPPRLPRPRPRPIIPPRP are within 0.2 log units of each other in “shrunken log2 fold change” value: -0.143 for the first, -0.195 for the second.

Going from RRIRCRPPRLPRPRPRPGNNPRP to RRIRSRPPRLPRPRPRPLDKPRP, the “shrunken log2 fold change” value rises from -0.47 to -0.233.
